In the test the target is T1, human calcitonin receptor (human, UniProt P30988 25-474).
T1 sequence (looked up): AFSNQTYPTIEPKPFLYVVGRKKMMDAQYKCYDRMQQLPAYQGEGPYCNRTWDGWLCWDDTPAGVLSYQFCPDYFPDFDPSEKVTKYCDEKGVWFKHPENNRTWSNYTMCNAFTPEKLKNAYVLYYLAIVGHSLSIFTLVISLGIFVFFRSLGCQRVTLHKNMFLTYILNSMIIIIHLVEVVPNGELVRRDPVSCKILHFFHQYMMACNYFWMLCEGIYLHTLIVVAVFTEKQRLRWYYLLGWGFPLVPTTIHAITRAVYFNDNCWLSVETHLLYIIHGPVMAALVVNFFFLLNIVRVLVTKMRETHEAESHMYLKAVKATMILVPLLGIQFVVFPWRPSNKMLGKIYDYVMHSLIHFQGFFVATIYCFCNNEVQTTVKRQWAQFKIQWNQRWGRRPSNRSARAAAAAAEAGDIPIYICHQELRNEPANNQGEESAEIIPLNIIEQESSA
Description: cell-based or functional assay.

Numbered stars: 1 amine (or outer) side, 2 acyl side, 3 side chain; on linkers, the order of the positions; unused ones are H or OH. Bridge positions count the residues as written; N and C are the ends. Side chains are listed from the residue outwards. Ends that are not written are not given here. * marks the point of attachment. C20 diacid = O=C(O)CCCCCCCCCCCCCCCCCCC(=O)*; γGlu = O=C(O)[C@H](CCC(=O)[*:2])N[*:1]

B1: N^ε1-[(4S)-4-carboxy-4-[[(4S)-4-carboxy-4-(19-carboxynonadecanoylamino)butanoyl]amino]butanoyl]-[Asp14,Arg17,Pro21,Pro26,Asp35]-h-amylin (peptide)
peptide: K([γGlu-γGlu-C20 diacid])CNTATCATQRLADFLRHSSPNFGAPLSSTNVGSDTY-NH2
modifications: disulfide 2-7; N-terminus assumed
SMILES: CC(C)C[C@H](NC(=O)[C@H](CCCNC(=N)N)NC(=O)[C@H](CCC(N)=O)NC(=O)[C@@H](NC(=O)[C@H](C)NC(=O)[C@@H]1CSSC[C@H](NC(=O)[C@@H](N)CCCCNC(=O)CC[C@H](NC(=O)CC[C@H](NC(=O)CCCCCCCCCCCCCCCCCCC(=O)O)C(=O)O)C(=O)O)C(=O)N[C@@H](CC(N)=O)C(=O)N[C@@H]([C@@H](C)O)C(=O)N[C@@H](C)C(=O)N[C@@H]([C@@H](C)O)C(=O)N1)[C@@H](C)O)C(=O)N[C@@H](C)C(=O)N[C@@H](CC(=O)O)C(=O)N[C@@H](Cc1ccccc1)C(=O)N[C@@H](CC(C)C)C(=O)N[C@@H](CCCNC(=N)N)C(=O)N[C@@H](Cc1c[nH]cn1)C(=O)N[C@@H](CO)C(=O)N[C@@H](CO)C(=O)N1CCC[C@H]1C(=O)N[C@@H](CC(N)=O)C(=O)N[C@@H](Cc1ccccc1)C(=O)NCC(=O)N[C@@H](C)C(=O)N1CCC[C@H]1C(=O)N[C@@H](CC(C)C)C(=O)N[C@@H](CO)C(=O)N[C@@H](CO)C(=O)N[C@H](C(=O)N[C@@H](CC(N)=O)C(=O)N[C@H](C(=O)NCC(=O)N[C@@H](CO)C(=O)N[C@@H](CC(=O)O)C(=O)N[C@H](C(=O)N[C@@H](Cc1ccc(O)cc1)C(N)=O)[C@@H](C)O)C(C)C)[C@@H](C)O
notes: analogue of human amylin; also called compound 1
B1: the “Ratio hCT/hAmylin funct.” value was 12 and the “hCTR funct. EC50” value is 2.7 nM.

B2: N^ε1-[(4S)-4-carboxy-4-[[(4S)-4-carboxy-4-(19-carboxynonadecanoylamino)butanoyl]amino]butanoyl]-[Asp14,Arg17,Pro21,Pro27,Arg35]-h-amylin (peptide)
peptide: K([γGlu-γGlu-C20 diacid])CNTATCATQRLADFLRHSSPNFGAIPSSTNVGSRTY-NH2
modifications: disulfide 2-7; N-terminus assumed
SMILES: CC[C@H](C)[C@H](NC(=O)[C@H](C)NC(=O)CNC(=O)[C@H](Cc1ccccc1)NC(=O)[C@H](CC(N)=O)NC(=O)[C@@H]1CCCN1C(=O)[C@H](CO)NC(=O)[C@H](CO)NC(=O)[C@H](Cc1c[nH]cn1)NC(=O)[C@H](CCCNC(=N)N)NC(=O)[C@H](CC(C)C)NC(=O)[C@H](Cc1ccccc1)NC(=O)[C@H](CC(=O)O)NC(=O)[C@H](C)NC(=O)[C@H](CC(C)C)NC(=O)[C@H](CCCNC(=N)N)NC(=O)[C@H](CCC(N)=O)NC(=O)[C@@H](NC(=O)[C@H](C)NC(=O)[C@@H]1CSSC[C@H](NC(=O)[C@@H](N)CCCCNC(=O)CC[C@H](NC(=O)CC[C@H](NC(=O)CCCCCCCCCCCCCCCCCCC(=O)O)C(=O)O)C(=O)O)C(=O)N[C@@H](CC(N)=O)C(=O)N[C@@H]([C@@H](C)O)C(=O)N[C@@H](C)C(=O)N[C@@H]([C@@H](C)O)C(=O)N1)[C@@H](C)O)C(=O)N1CCC[C@H]1C(=O)N[C@@H](CO)C(=O)N[C@@H](CO)C(=O)N[C@H](C(=O)N[C@@H](CC(N)=O)C(=O)N[C@H](C(=O)NCC(=O)N[C@@H](CO)C(=O)N[C@@H](CCCNC(=N)N)C(=O)N[C@H](C(=O)N[C@@H](Cc1ccc(O)cc1)C(N)=O)[C@@H](C)O)C(C)C)[C@@H](C)O
notes: analogue of human amylin; also called compound 52
In the case of B2, the “hCTR funct. EC50” value was 14.1 nM.
